Key:
TBP = TBP (human, UniProt P20226 1-339); assay: smFRET
TBP;TFIIA = TBP;TFIIA (human;human, UniProt P20226;P52655;P52657 1-339;1-376;1-109, |); assay: smFRET
TBP;TFIIA, sequence (P20226 whole entry, chain 1 of 3): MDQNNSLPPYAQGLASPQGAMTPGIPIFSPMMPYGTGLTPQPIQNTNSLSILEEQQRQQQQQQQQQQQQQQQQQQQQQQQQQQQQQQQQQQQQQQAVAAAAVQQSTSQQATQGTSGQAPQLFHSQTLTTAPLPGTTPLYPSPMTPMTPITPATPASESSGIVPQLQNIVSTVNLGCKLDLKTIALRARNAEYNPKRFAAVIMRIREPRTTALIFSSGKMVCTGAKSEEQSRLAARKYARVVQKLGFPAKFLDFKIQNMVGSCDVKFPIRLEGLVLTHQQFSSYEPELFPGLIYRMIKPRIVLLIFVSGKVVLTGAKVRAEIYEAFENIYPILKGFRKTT
TBP;TFIIA, sequence (P52655 whole entry, chain 2 of 3): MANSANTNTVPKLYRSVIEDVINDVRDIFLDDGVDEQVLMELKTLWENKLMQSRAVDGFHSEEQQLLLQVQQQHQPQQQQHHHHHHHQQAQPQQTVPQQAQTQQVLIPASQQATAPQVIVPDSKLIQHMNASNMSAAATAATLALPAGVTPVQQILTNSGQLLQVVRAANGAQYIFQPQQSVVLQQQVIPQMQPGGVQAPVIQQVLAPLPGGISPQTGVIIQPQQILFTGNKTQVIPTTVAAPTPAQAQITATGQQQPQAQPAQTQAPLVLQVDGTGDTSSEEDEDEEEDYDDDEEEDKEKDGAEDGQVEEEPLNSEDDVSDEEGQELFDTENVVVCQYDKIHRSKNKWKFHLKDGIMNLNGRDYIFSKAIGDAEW
TBP;TFIIA, sequence (P52657 whole entry, chain 3 of 3): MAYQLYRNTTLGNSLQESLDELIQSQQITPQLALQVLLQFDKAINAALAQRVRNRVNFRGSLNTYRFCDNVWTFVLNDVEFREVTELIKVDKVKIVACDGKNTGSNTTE

TBP, sequence (P20226 whole entry): as the sequence (P20226 whole entry, chain 1 of 3) above

B1: TATA(A3) smFRET construct (mixed)
DNA 1: CAGGCTAAAAAAGGGACG
DNA 2: CGTCCCTTTTTTAGCCTGCACCACCACCACCACCACCA
DNA 3: TGGTGGTGGTGGTGGTGGT
Which results are given for B1?
binding result (TBP): binds; binding result (TBP;TFIIA): binds
